Measurements reported in the supplement of paper PMC7877785.
± gives the uncertainty stated by the source.

Assay: self-splicing fitness, log relative to wild type (ln ratio); higher = more splicing; Tetrahymena group I intron in knt gene, E. coli kanamycin selection, DiMSum; sequences stand for … in CUCUCU…GGAGGGAAAAGUUAUCAGGCAUGCACCUGGUAGCUAGUCUUUAAACCAAUAGAUUGCAUCGGUUUAAAAGGCAAGACCGUCAAAUUGCGGGAAAGGGGUCAACAGCCGUUCAGUACCAAGUCUCAGGGGAAACUUUGAGAUGGCCUUGCAAAGGGUAUGGUAAUAAGCUGACGGACAUGGUCCUAACCACGCAGCCAAGUCCUAAGUCAACAGAUCUUCUGUUGAUAUGGAUGCAGUUCACAGACUAAAUGUCGGUCGGGGAAGAUGUAUUCUUCUCAUAAGAUAUAGUCGGACCUCUCCUUAAUGGGAGCUAGCGGAUGAAGUGAUGCAACACUGGAGCCGCUGGGAACUAAUUUGUAUGCGAAAGUAUAUUGAUUAGUUUUGGAGUACUCGUGGUCG
In short: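 Colonies from six replicate transformations of E. coli BL21(DE3) were pooled and amplicon-sequenced on an Illumina HiSeq 2500. The library placed an intron with all eight P1ex-region nucleotides randomised inside the knt kanamycin-resistance gene on pET-22b(+), and cells grew overnight at 37°C or 30°C on LB agar with or without 25 μg/mL kanamycin (plus 100 μg/mL carbenicillin, 50 μM IPTG, 0.2% rhamnose). Fitness is the DiMSum error-weighted combination of wild-type-normalised replicate fold changes, kanamycin versus none.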

Sequence	self-splicing fitness (ln) (30 °C)	self-splicing fitness (ln) (37 °C)
UGCUAGCAAUAUUACGAUCA	0.384 ± 0.07	0.522 ± 0.094
UGCUAGCAAUAUUACGAUGC	-4.2 ± 0.34	–
UGCUAGCAAUAUUACGAUGU	-4.19 ± 0.46	-2.59 ± 0.38
UGCUAGCAAUAUUACGCAAU	-3.02 ± 0.3	-2.31 ± 0.29
UGCUAGCAAUAUUACGCACA	-1.12 ± 0.13	0.22 ± 0.11
UGCUAGCAAUAUUACGCAUC	-3.95 ± 0.21	-2.45 ± 0.17
UGCUAGCAAUAUUACGCAUG	-3.03 ± 0.34	-0.445 ± 0.19
UGCUAGCAAUAUUACGCGAU	-4.01 ± 0.39	-1.03 ± 0.15
UGCUAGCAAUAUUACGCGCA	-1.97 ± 0.23	-0.803 ± 0.2
UGCUAGCAAUAUUACGCUAG	-2.28 ± 0.22	-2.65 ± 0.34
UGCUAGCAAUAUUACGCUCA	-0.263 ± 0.15	0.646 ± 0.16
UGCUAGCAAUAUUACGGAAC	-1.04 ± 0.5	–
UGCUAGCAAUAUUACGGCAC	-3.7 ± 0.42	-2.19 ± 0.39
UGCUAGCAAUAUUACGGUCA	0.0813 ± 0.11	0.529 ± 0.13
UGCUAGCAAUAUUACGGUGC	-3.92 ± 0.27	-2.38 ± 0.26
UGCUAGCAAUAUUACGUACA	0.0476 ± 0.1	0.533 ± 0.17
UGCUAGCAAUAUUACGUAUU	-3.06 ± 0.18	-1.72 ± 0.24
UGCUAGCAAUAUUACGUCAA	-1.87 ± 0.13	-1.13 ± 0.12
UGCUAGCAAUAUUACGUGCA	-2.54 ± 0.32	-1.99 ± 0.28
UGCUAGCAAUAUUACGUGGU	-3.36 ± 0.22	-2.13 ± 0.24
UGGAAGCAAUAUUACGAACA	-0.687 ± 0.13	-0.937 ± 0.17
UGGAAGCAAUAUUACGAAUA	0.136 ± 0.41	-0.685 ± 0.28
UGGAAGCAAUAUUACGACGA	0.0371 ± 0.18	-0.862 ± 0.15
UGGAAGCAAUAUUACGAGCU	-1.95 ± 0.16	-0.801 ± 0.15
UGGAAGCAAUAUUACGAUAU	-2.59 ± 0.18	-2.39 ± 0.21

Sequence	self-splicing fitness (ln) (30 °C)	self-splicing fitness (ln) (37 °C)
UGGAAGCAAUAUUACGAUGU	-1.75 ± 0.21	-2 ± 0.22
UGGAAGCAAUAUUACGCAGU	-2.85 ± 0.4	-1.6 ± 0.18
UGGAAGCAAUAUUACGCCAU	-3.64 ± 0.28	-2.07 ± 0.36
UGGAAGCAAUAUUACGCCCU	-0.2 ± 0.14	-0.0341 ± 0.18
UGGAAGCAAUAUUACGCGAC	-2.77 ± 0.37	–
UGGAAGCAAUAUUACGCGCC	-3.22 ± 0.32	-1.54 ± 0.31
UGGAAGCAAUAUUACGCUGA	–	-0.713 ± 0.4
UGGAAGCAAUAUUACGGAGA	-2.7 ± 0.22	-1.31 ± 0.13
UGGAAGCAAUAUUACGGAUA	-0.862 ± 0.084	-1.04 ± 0.088
UGGAAGCAAUAUUACGGGAU	-1.89 ± 0.17	-2.46 ± 0.28
UGGAAGCAAUAUUACGGUCU	-1.94 ± 0.14	0.0438 ± 0.16
UGGAAGCAAUAUUACGUCGA	-1.02 ± 0.072	-0.272 ± 0.089
UGGAAGCAAUAUUACGUCGU	-2.12 ± 0.18	-2.19 ± 0.25
UGGAAGCAAUAUUACGUCUG	-2.56 ± 0.25	-1.52 ± 0.2
UGGAAGCAAUAUUACGUUUG	-0.722 ± 0.082	-0.645 ± 0.13
UGGCAGCAAUAUUACGAAAA	-0.512 ± 0.082	-0.934 ± 0.1
UGGCAGCAAUAUUACGAAGA	-1.98 ± 0.2	-1.41 ± 0.2
UGGCAGCAAUAUUACGACCA	-0.399 ± 0.2	-0.654 ± 0.2
UGGCAGCAAUAUUACGAGAC	-3.74 ± 0.48	-1.09 ± 0.45
UGGCAGCAAUAUUACGAUAU	-2.5 ± 0.16	-1.37 ± 0.21
UGGCAGCAAUAUUACGAUCC	-0.653 ± 0.3	-0.564 ± 0.29
UGGCAGCAAUAUUACGCCCG	-0.568 ± 0.14	-0.317 ± 0.21
UGGCAGCAAUAUUACGCCUU	-1.65 ± 0.14	-0.596 ± 0.21
UGGCAGCAAUAUUACGCGAG	-1.96 ± 0.1	-0.954 ± 0.097
UGGCAGCAAUAUUACGCUAU	-3.89 ± 0.25	-1.8 ± 0.2

Sequence	self-splicing fitness (ln) (30 °C)	self-splicing fitness (ln) (37 °C)
UGGCAGCAAUAUUACGCUUC	-2.18 ± 0.28	–
UGGCAGCAAUAUUACGGCGU	-1.32 ± 0.12	-0.678 ± 0.14
UGGCAGCAAUAUUACGGCUG	-3.05 ± 0.33	-2.38 ± 0.46
UGGCAGCAAUAUUACGGGCG	0.162 ± 0.071	0.586 ± 0.1
UGGCAGCAAUAUUACGGGCU	-3.06 ± 0.16	-2.02 ± 0.15
UGGCAGCAAUAUUACGGGUC	-3.28 ± 0.29	-1.28 ± 0.28
UGGCAGCAAUAUUACGGUUU	-0.212 ± 0.061	-0.422 ± 0.078
UGGCAGCAAUAUUACGUGUU	-3.93 ± 0.19	-2.2 ± 0.12
UGGCAGCAAUAUUACGUUCC	-2.02 ± 0.17	-1.09 ± 0.18
UGGCAGCAAUAUUACGUUCU	0.076 ± 0.06	0.0497 ± 0.069
UGGGAGCAAUAUUACGAGUA	-3.85 ± 0.43	-2.59 ± 0.44
UGGGAGCAAUAUUACGCCAU	-3.45 ± 0.33	-0.288 ± 0.26
UGGGAGCAAUAUUACGCGCG	-1.51 ± 0.3	-0.924 ± 0.35
UGGGAGCAAUAUUACGCUUU	–	-2.01 ± 0.31
UGGGAGCAAUAUUACGGUUA	-3.22 ± 0.37	-1.65 ± 0.16
UGGGAGCAAUAUUACGGUUU	-3.58 ± 0.16	-3.35 ± 0.23
UGGGAGCAAUAUUACGUGAG	-2.33 ± 0.18	-1.14 ± 0.14
UGGUAGCAAUAUUACGAAAC	-4.02 ± 0.42	-2.42 ± 0.45
UGGUAGCAAUAUUACGACGA	-0.462 ± 0.14	1.24 ± 0.19
UGGUAGCAAUAUUACGACUU	-0.197 ± 0.16	0.212 ± 0.16
UGGUAGCAAUAUUACGCCCA	-0.775 ± 0.21	-1.14 ± 0.23
UGGUAGCAAUAUUACGCCGG	-1.3 ± 0.12	-0.73 ± 0.13
UGGUAGCAAUAUUACGCGGG	-2.93 ± 0.2	-2.47 ± 0.2
UGGUAGCAAUAUUACGCGUA	-1.26 ± 0.24	-1.56 ± 0.27
UGGUAGCAAUAUUACGCUAG	-2.07 ± 0.13	-1.82 ± 0.16

Sequence	self-splicing fitness (ln) (30 °C)	self-splicing fitness (ln) (37 °C)
UGGUAGCAAUAUUACGCUGU	-3.24 ± 0.19	-2.12 ± 0.17
UGGUAGCAAUAUUACGGAAA	-1.86 ± 0.28	-1.81 ± 0.24
UGGUAGCAAUAUUACGGAUA	-1.92 ± 0.24	-2.72 ± 0.27
UGGUAGCAAUAUUACGGGAA	-2.02 ± 0.22	-1.6 ± 0.19
UGGUAGCAAUAUUACGGUAU	-3.64 ± 0.32	-1.87 ± 0.4
UGGUAGCAAUAUUACGUAGA	-2.54 ± 0.17	-1.16 ± 0.14
UGGUAGCAAUAUUACGUAGG	-1.25 ± 0.14	-1.35 ± 0.25
UGGUAGCAAUAUUACGUAUC	–	-2.38 ± 0.45
UGGUAGCAAUAUUACGUCAG	-2.07 ± 0.19	-0.266 ± 0.15
UGGUAGCAAUAUUACGUCGA	-0.768 ± 0.1	0.144 ± 0.1
UGGUAGCAAUAUUACGUCUA	-0.44 ± 0.096	0.358 ± 0.12
UGGUAGCAAUAUUACGUGAC	-3.97 ± 0.27	-1.05 ± 0.2
UGGUAGCAAUAUUACGUGAU	-2.76 ± 0.25	-1.34 ± 0.16
UGGUAGCAAUAUUACGUGCG	-0.612 ± 0.12	-0.415 ± 0.15
UGGUAGCAAUAUUACGUUCA	-0.227 ± 0.11	-0.354 ± 0.14
UGUAAGCAAUAUUACGAACU	-0.349 ± 0.12	-0.682 ± 0.12
UGUAAGCAAUAUUACGACGC	-2.61 ± 0.36	-1.61 ± 0.3
UGUAAGCAAUAUUACGAGCA	-0.193 ± 0.14	0.404 ± 0.2
UGUAAGCAAUAUUACGAGCU	-0.434 ± 0.16	0.293 ± 0.16
UGUAAGCAAUAUUACGAGGU	-4.29 ± 0.36	-2.63 ± 0.28
UGUAAGCAAUAUUACGAUGU	-3.26 ± 0.15	-1.93 ± 0.21
UGUAAGCAAUAUUACGCCAC	-3.43 ± 0.33	-2.65 ± 0.41
